In paper PMC3896444, “Structural Basis of Thermal Stability of the Tungsten Cofactor Synthesis Protein MoaB from Pyrococcus furiosus” (PLoS ONE, 2014):
Numbering of substitutions follows the chain as printed. Numbers in names are those of the source. Where “and” joins values, the source holds several entries; their conditions need not be identical. Equal entries are not always repeated.

Assays:
[1] = target: PfuMoaB-H3 variant (α3-helix exchanged against the corresponding helix of E. coli MogA) (Pyrococcus furiosus) (UniProt Q8U3T3); test: cross-linking; 0.5 mg/ml protein, 1.5 mM BS3, 20 mM sodium phosphate pH 8.0, 0.2 M NaCl, 30 min; SDS-PAGE
[2] = target: PfuMoaB-H3 variant (α3-helix exchanged against the corresponding helix of E. coli MogA) (Pyrococcus furiosus) (UniProt Q8U3T3); test: cross-linking; 0.5 mg/ml protein, 2 mM EDC, 0.1 M MES pH 6.0, 0.5 M NaCl, 3 h; SDS-PAGE; trimer bands analysed by LC-MS/MS
[3] = target: PfuMoaB-H3 variant (α3-helix exchanged against the corresponding helix of E. coli MogA) (Pyrococcus furiosus) (UniProt Q8U3T3); test: SEC; analytical Superdex 200 10/300, 0.1 M Tris pH 8.0, 0.2 M NaCl, 0.5 ml/min, 4°C; 5-10 nmol of Ni-NTA purified protein; masses by standard proteins
[4] = target: the molecule itself; test: as above
[5] = target: the molecule itself; test: crystal structure; space group P3(1)21, three chains in the asymmetric unit, hexamer by the two-fold crystallographic axis; crystals from 0.1 MES pH 6.0, 40% PEG 400, 5% PEG 3000, 20°C; 2.5 Å
[6] = target: the molecule itself; test: cross-linking; 0.5 mg/ml protein, 2 mM EDC, 0.1 M MES pH 6.0, 0.5 M NaCl, 3 h; SDS-PAGE; trimer bands analysed by LC-MS/MS
[7] = target: the molecule itself; test: SEC; preparative Superdex 200 16/60 pg, Ni-NTA purified protein; fractions analysed by SDS-PAGE

PfuMoaB-H3 variant (α3-helix exchanged against the corresponding helix of E. coli MogA) (from UniProt Q8U3T3 1-169) (enzyme)
stoichiometry N [1]: 3 and 2 | stoichiometry N [2]: 2 and 3 | stoichiometry N [3]: 3 and 2

B1: E. coli MoaB (natural protein, Escherichia coli, UniProt P0AEZ9 1-170, looked up)
chain: MSQVSTEFIPTRIAILTVSNRRGEEDDTSGHYLRDSAQEAGHHVVDKAIVKENRYAIRAQVSAWIASDDVQVVLITGGTGLTEGDQAPEALLPLFDREVEGFGEVFRMLSFEEIGTSTLQSRAVAGVANKTLIFAMPGSTKACRTAWENIIAPQLDARTRPCNFHPHLKK
notes: MoaB of Escherichia coli; also called EcoMoaB; source: E. coli, purified (Ni-NTA)
stoichiometry N [4]: 6

B2: Pyrococcus furiosus MPT-adenylyl-transferase MoaB, wild type (enzyme)
chain: MGVEEHKKEAPKTFKFGVITVSDKGAKGEREDKSGPLIIEELSKLGEHVYYKIVPDDKIEVLIALFEAIKSGADVVVTTGGTGITRRDITIESIKPLFDKELSFGEVFRAKSYEEVGYATVLTRATAGIIRGQERIVVVFSLPGSVNAVKTGLEIIKSEVFHILKHARE
notes: MoaB, MPT-adenylyl-transferase of Pyrococcus furiosus; residues from 1 on are in the construct (1-9/10/11 disordered in the crystal), Glu169 is named; predicted mass with tag 19,971.95 Da; also called PfuMoaB; PfuMoaB-WT; source: E. coli BL21(DE3), purified (Ni-NTA); not shown: His-tag, N-terminal, kept
stoichiometry N [5]: 6 | stoichiometry N [6]: 3 and 2

B3: PfuMoaB I59R/I63R/F66R variant (enzyme, Pyrococcus furiosus)
chain: B2 chain with I59R, I63R, F66R
notes: MoaB of Pyrococcus furiosus with three arginines in the α3-helix; Increased tendency to precipitation was observed
binding result [7]: binds

B4: G-domain of A. thaliana Cnx1 (domain or fragment, Arabidopsis thaliana)
chain: VPGPEYKVAILTVSDTVSAGAGPDRSGPRAVSVVDSSSEKLGGAKVVATAVVPDEVERIKDILQKWSDVDEMDLILTLGGTGFTPRDVTPEATKKVIERETPGLLFVMMQESLKITPFAMLSRSAAGIRGSTLIINMPGNPNAVAECMEALLPALKHALKQIKGDKR
notes: G domain of the molybdenum cofactor biosynthesis protein Cnx1 of Arabidopsis thaliana; also called AthCnx1G; Cnx1G; source: E. coli, purified (Ni-NTA)
stoichiometry N [4]: 3

B5: E. coli MogA (enzyme, Escherichia coli, UniProt P0AF03 1-195, looked up)
chain: MNTLRIGLVSISDRASSGVYQDKGIPALEEWLTSALTTPFELETRLIPDEQAIIEQTLCELVDEMSCHLVLTTGGTGPARRDVTPDATLAVADREMPGFGEQMRQISLHFVPTAILSRQVGVIRKQALILNLPGQPKSIKETLEGVKDAEGNVVVHGIFASVPYCIQLLEGPYVETAPEVVAAFRPKSARRDVSE
notes: MogA, MPT-adenylyl-transferase of Escherichia coli; also called EcoMogA; MogA (E. coli); source: E. coli, purified (Ni-NTA); not shown: His-tag, N-terminal, kept
stoichiometry N [4]: 3
